Experimental data from paper PMC6981274, “Structure and mechanism of a Type III CRISPR defence DNA nuclease activated by cyclic oligoadenylate” (Nature Communications, 2020).

Key:
[1] = molecular target: T1, Can1 wild type (UniProt Q53W14 =ME+3-636+=LE, internal_change); test: SAXS; EMSA: 100 nM 32P-cA4, 20 mM MES pH 6.5, 100 mM NaCl, 1 mM EDTA, 5 mM MnCl2, 2 uM BSA, 10 min at room temperature; 15% native acrylamide, 1x TBE; details: protein: recombinant; tags: N-terminal His tag removed by TEV; C-terminal Leu-Glu added by cloning; cyclic single strand of 4 nt
T1 sequence: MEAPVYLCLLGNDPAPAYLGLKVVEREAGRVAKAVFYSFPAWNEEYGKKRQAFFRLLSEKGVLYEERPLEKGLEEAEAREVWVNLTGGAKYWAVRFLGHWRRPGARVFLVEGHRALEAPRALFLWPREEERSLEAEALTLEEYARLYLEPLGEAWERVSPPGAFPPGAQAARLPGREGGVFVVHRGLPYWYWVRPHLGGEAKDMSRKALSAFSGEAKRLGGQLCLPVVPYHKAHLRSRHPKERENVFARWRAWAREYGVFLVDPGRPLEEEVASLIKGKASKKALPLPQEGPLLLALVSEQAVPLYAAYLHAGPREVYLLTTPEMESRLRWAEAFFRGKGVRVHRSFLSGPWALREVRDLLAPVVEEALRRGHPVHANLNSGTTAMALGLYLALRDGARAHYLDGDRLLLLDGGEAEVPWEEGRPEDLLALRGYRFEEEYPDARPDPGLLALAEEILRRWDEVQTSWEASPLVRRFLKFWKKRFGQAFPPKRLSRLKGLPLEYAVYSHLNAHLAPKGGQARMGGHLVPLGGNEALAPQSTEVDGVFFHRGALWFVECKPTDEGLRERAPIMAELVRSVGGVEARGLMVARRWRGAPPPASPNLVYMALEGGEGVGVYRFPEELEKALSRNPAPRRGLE

[2] = molecular target: T2, Can1 SeMet (UniProt Q53W14 =ME+3-636+=LE, internal_change); test: X-ray crystallography (1.83 A); EMSA: 100 nM 32P-cA4, 20 mM MES pH 6.5, 100 mM NaCl, 1 mM EDTA, 5 mM MnCl2, 2 uM BSA, 10 min at room temperature; 15% native acrylamide, 1x TBE; details: protein: recombinant; tags: N-terminal His tag removed by TEV; C-terminal Leu-Glu added by cloning; cyclic single strand of 4 nt
T2 sequence: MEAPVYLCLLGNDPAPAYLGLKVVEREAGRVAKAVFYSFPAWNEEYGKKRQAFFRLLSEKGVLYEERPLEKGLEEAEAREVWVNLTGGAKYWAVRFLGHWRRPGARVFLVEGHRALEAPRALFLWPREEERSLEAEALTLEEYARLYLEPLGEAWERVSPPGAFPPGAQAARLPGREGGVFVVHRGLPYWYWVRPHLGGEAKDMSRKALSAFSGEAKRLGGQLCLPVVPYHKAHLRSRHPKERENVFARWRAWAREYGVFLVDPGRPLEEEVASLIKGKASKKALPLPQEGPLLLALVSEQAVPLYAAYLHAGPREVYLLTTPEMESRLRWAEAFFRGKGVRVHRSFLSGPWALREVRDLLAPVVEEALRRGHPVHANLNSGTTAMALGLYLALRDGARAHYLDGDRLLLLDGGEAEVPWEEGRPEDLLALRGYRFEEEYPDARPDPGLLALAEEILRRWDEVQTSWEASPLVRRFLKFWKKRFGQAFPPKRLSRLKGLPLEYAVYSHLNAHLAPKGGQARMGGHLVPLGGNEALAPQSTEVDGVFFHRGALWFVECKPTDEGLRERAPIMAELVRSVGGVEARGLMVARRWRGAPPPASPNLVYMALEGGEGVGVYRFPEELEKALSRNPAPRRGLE

AAAA (structured_RNA, cyclic oligoribonucleotide, no free ends) [cA4 (cyclic tetra-adenylate), unlabelled]
binding result [1]: binds
binding result [2]: binds
